The EC50 is the midpoint of the concentration-response curve. The low end stands for higher potency in that assay, the high end for lower potency in that assay.

The values that follow come from patent US20240390418A1 (MINERVA BIOTECHNOLOGIES, published 2024).

To fix the notation:
B3: PSMGFR peptide (peptide)
peptide: GTINVHDVETQFNQYKTEAASRYNLTISDVSVSDVPFPFSAQSGA
notes: also called MUC1* peptide

Test [1] concerns the target B3. Briefly: ELISA, peptide on plate (FIG. 201A). How it is done: (§1) FIG. 201A-201C show graphs of ELISA assays to determine the binding of another set of antibodies generated by immunizing animals with the PSMGFR peptide. […] F3, B12, B2, B7, B9, 8C7F3 and H11 all bound to the PSMGFR peptide and to the N-10 peptide.
(§2) This same ELISA assay was performed on the antibodies of the invention (FIGS. 64-66 and FIG. 201). Note that only 20A10 exactly matches the binding profile of MNC2 and MNE6. 25E6, 28F9 and 18G12 are all able to bind to the N-10 peptide. 18B4 is the only antibody raised against the PSMGFR peptide that requires the 10 most N-terminal amino acids of the peptide. The color of the bars for each antibody in the ELISA graph are color coded to match the deductive cognate sequence, or a portion thereof, of that antibody. In addition, another set of antibodies was assayed by ELISA (FIG. 201). Of this set, B12, B2, B7, B9, 8C7F3, and H11 bound to the PSMGFR peptide, bound to the N-10 peptide, but not to the C-10 peptide (FIG. 201). Although these antibodies were raised against the N+20/C-27 peptide, all but one, 45C11, still bind to the PSMGFR peptide, albeit at the N-terminal portion of PSMGFR.
(In general: An ELISA detects its analyte on a solid surface through an enzyme-linked reagent.)

Test [2] concerns the target T1, C-10 peptide.
T1 construct: also called PSMGFR C-10; PSMGFR minus 10 amino acids from the C-terminus
T1 peptide: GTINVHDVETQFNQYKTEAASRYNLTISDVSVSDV
In words: ELISA, peptide on plate (FIG. 201C). How it is done: as §1, §2

The target in test [3] is T2, N-10 peptide.
T2 construct: also called PSMGFR N-10; PSMGFR minus 10 amino acids from the N-terminus
T2 peptide: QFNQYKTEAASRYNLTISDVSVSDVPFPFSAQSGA
Briefly: ELISA, peptide on plate (FIG. 201B). How it is done: as §1, §2

The target in a further test is T3, NME7AB (Homo sapiens (Human), UniProt Q9Y5B8 92-376).
T3 construct: NME7A in the text appears to be NME7AB; also called NM23-H7; NME7A
T3 sequence: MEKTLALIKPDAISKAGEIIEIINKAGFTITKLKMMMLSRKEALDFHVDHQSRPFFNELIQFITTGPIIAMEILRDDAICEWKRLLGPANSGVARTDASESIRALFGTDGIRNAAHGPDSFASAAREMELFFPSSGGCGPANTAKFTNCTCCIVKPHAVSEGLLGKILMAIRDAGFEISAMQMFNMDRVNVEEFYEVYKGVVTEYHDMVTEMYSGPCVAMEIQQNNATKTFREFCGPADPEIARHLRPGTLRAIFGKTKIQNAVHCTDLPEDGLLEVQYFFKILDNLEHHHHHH
In words: ELISA, peptide on plate (FIG. 2A). How it is done:
FIGS. 2A-2I show results of ELISA assays. MUC1* peptides PSMGFR, PSMGFR minus 10 amino acids from the N-terminus aka N-10, or PSMGFR minus 10 amino acids from the C-terminus, aka C-10 are immobilized on the plate and the following are assayed for binding: NME7-AB (FIG. 2A), MNC2 monoclonal antibody (FIG. 2B), MNE6 monoclonal antibody (FIG. 2C), or dimeric NME1 (FIG. 2D). […] MUC1* peptides PSMGFR minus 10 amino acids from the N-terminus aka N-10, or PSMGFR minus 10 amino acids from the C-terminus, aka C-10, are immobilized on the plate and the following are assayed for binding: MNC3 (FIG. 2E) and MNC8 (FIG. 2F).

Test [4] has as its target B3. In words: ELISA, PSMGFR peptide on plate (FIG. 5). On the procedure:
Humanized MNC2 scFv is then incubated with the surface, washed and detected according to standard methods.

Test [5] addresses B3. Briefly: peptide ELISA, told in tissue legend.
In test [6] the target is T2, N-10 peptide. In words: peptide ELISA, told in tissue legend.
Test [7] addresses T1, C-10 peptide. Briefly: ELISA, peptide on plate (FIG. 64).
In a further test the target is T4, N+9/C-9 peptide.
T4 peptide: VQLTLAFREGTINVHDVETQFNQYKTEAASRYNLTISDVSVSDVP
Briefly: ELISA, peptide on plate (FIG. 64).

The target of another test is T5, N-10/C-5 peptide.
T5 peptide: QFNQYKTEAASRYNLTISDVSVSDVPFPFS
Briefly: ELISA, peptide on plate (FIG. 69).

The target in another test is T6, N-19/C-5 peptide.
T6 peptide: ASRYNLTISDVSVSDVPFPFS
In words: ELISA, peptide on plate (FIG. 69).

The next test concerns the target T7, N-26 peptide.
T7 peptide: ISDVSVSDVPFPFSAQSGA
Briefly: ELISA, peptide on plate (FIG. 69).

For a further test, the target named is T8, N-19 peptide.
T8 peptide: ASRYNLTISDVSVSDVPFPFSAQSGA
Briefly: ELISA, peptide on plate (FIG. 69).

Another test has as its target T9, N-30 peptide.
T9 peptide: SVSDVPFPFSAQSGA
In words: ELISA, peptide on plate (FIG. 69).

Test [8] has as its target T2, N-10 peptide. Briefly: ELISA, peptide on plate (FIG. 69).
Test [9] concerns the target T1, C-10 peptide. Briefly: peptide ELISA.
In test [10] the target is B3. In words: peptide binding, told in Western blot legend. In general terms: Immunoblotting shows a protein as a band on a membrane.
Test [11] addresses T2, N-10 peptide. Briefly: ELISA, peptide on plate (FIG. 64).

B1: monoclonal antibody B12 (antibody, V domains shown)
VH: QAQLKESGPGLVAPSQSLSITCTVSGFSLTSYGVHWVRQPPGKGLEWLGVIWPGGSTNYNSTLMSRMRIIKDNSKSQVFLKMNSLQIDDTAMYYCARDRTPRVGAWFAYWGQGTLVTVSA
VL: IIVLTQSPASLAVSLGQRATISCRASESVATYGNNFMQWYQQKPGQPPKLLIYLASTLDSGVPARFSGSGSRTDFTLTIDPVEADDAATYYCQQNNEDPPTFGGGTKLEIK
notes: Raised against PSMGFR
Turning to B1, the binding result is given as “binds” with PSMGFR peptide [1], “no binding” with C-10 peptide [2] and “binds” with N-10 peptide [3].

B2: monoclonal antibody 8C7F3 (antibody, V domains shown)
VH: EVMLVESGGGLVKPGGSLKLSCAASGFTFSTYAMSWVRQTPEKRLEWVAAISNGGGYTYYPDSLKGRFTISRDNAKNTLYLQMSSLRSEDTATYYCARRYYDHYFDYWGQGTALTVSS
VL: IIVLTQSPASLAVSLGQRATISCRASESVATYGNNFMQWYQQKPGQPPKLLIYLASTLDSGVPARFSGSGSRTDFTLTIDPVEADDAATYYCQQNNEDPPTFGGGTKLEIK
notes: Raised against PSMGFR
As for B2, the binding result is “binds” in the test with PSMGFR peptide [1], “no binding” in the test with C-10 peptide [2] and “binds” with N-10 peptide [3].

In the case of B3, in the test with NME7AB, the binding result is “binds”.

B4: humanized MNC2 scFv (scFv, V domains shown)
VH: EVQLVESGGGLVKPGGSLRLSCAASGFTFSGYAMSWVRQAPGKGLEWVSTISSGGTYIYYPDSVKGRFTISRDNAKNSLYLQMNSLRAEDTAVYYCARLGGDNYYEYFDVWGKGTTVTVSS
VL: DIVLTQSPASLAVSPGQRATITCRASKSVSTSGYSYMHWYQQKPGQPPKLLIYLASNLESGVPARFSGSGSGTDFTLTINPVEANDTANYYCQHSRELPFTFGGGTKVEIKR
notes: also called huMNC2scFv; huMNC2 scFv
In turn, B4 had an EC50 in the test with PSMGFR peptide [4] of approximately 333 nM.

B5: monoclonal antibody B9 (antibody, V domains shown)
VH: EVQVVESGGDLVKPGGSLKLSCAASGFTFSRYGMSWVRQTPDKRLEWVATISSGGTYIYYPDSVKGRFTISRDNAKNTLYLQMSSLKSEDTAMYYCARDNYGSSYDYAMDYWGQGTSVTVSS
VL: QIVLTQSPAIMSASPGEEVTLTCSASSSVSYMHWFQQRPGTSPKLWIYTTSNLASGVPARFSGSGSGTSYSLTISRMEAEDAATYYCQQRSSYPFTFGSGTKLEIK
notes: Raised against PSMGFR
With B5, the binding result was “binds” in the test with PSMGFR peptide [1], “no binding” in the test with C-10 peptide [2] and “binds” in the test with N-10 peptide [3].

B6: monoclonal antibody 20A10 (antibody, V domains shown)
VH: EVMLVESGGGLVKPGGSLKLSCAASGFTFSTYAMSWIRQTPEKRLEWVASIGRAGSTYYSDSVKGRFTISRDNVRNILYLQMSSLRSEDTAMYYCARGPIYNDYDEFAYWGQGTLVTVSA
VL: NIMMTQSPSSLAVSAGEKVTMSCKSSQSVLYSSNQKNYLAWYQQKPGQSPKLLIYWASTRESGVPDRFTGSGSGTDFTLTISSVQAEDLAVYYCHQYLSSLTFGAGTKLELK
notes: Raised against PSMGFR; also called MN20A10; anti-PSMGFR antibody 20A10
Take B6: the binding result was “binds” with PSMGFR peptide [5], “binds” in the test with N-10 peptide [6], “no binding” with C-10 peptide [7] and “no binding” with N+9/C-9 peptide.

B7: monoclonal antibody B2 (antibody, V domains shown)
VH: EVVLVESGGGLVEPGGSLKLSCVASGFAFSTFAMSWIRQTPEKRLEWVAAISNGGGYTYYPDTLKGRFSISRDNAKNTLYLQMSSLRSEDTAVYYCARRYYDLYFDLWGRGTSLIVSS
VL: DILMTQTPLSLPVSLGDQASISCRSSQNIVHSNGNTYLEWYLQKPGQSPKLLIYKVSNRFSGVPDRFSGSGSGTDFTLKISRVEAEDLGVYYCFQDSHVPLTFGAGTRLELK
notes: Raised against PSMGFR
For the molecule B7, the figures for the binding result with PSMGFR peptide [1], in the test with C-10 peptide [2] and in the test with N-10 peptide [3] were “binds”, “no binding” and “binds”, respectively.

B8: monoclonal antibody B7 (antibody, V domains shown)
VH: EVQVVESGGDLVKPGGSLKLSCAASGFTFSRYGMSWVRQTPDKRLEWVATISSGGTYIYYPDSVKGRFTISRDNAKNTLYLQMSSLKSEDTAMYYCARDNYGSSYDYAMDYWGQGTSVTVSS
VL: DVLMTQTPLSLPVSLGDQASISCRSSQTIVHSNGNTYLEWYLQKPGQSPKLLIYKVSNRFSGVPDRFSGSGSGTDFTLKISRVEAEDLGVYYCFQDSHVPLTFGAGTKLELK
notes: Raised against PSMGFR
Consider B8, for which the binding result is “binds” with PSMGFR peptide [1], “no binding” with C-10 peptide [2] and “binds” with N-10 peptide [3].

B9: monoclonal antibody 17H6 (antibody, V domains shown)
VH: EVKLVESGGGLVQPGGSLRLSCATSGFTFTDYYMSWVRQPPRKALEWLGFIRNKANGYTAEYSASVKGRFTISRDVSQNLLYLQMNILRAEDSATYYCAKDYYGSNPAWFAYWGQGTLVTVSA
VL: DILMTQTPLSLPVSLGDQASISCRSSQSIVHSSGNTFLEWYLQKPGQSPKLLIYKVSNRFSGVPDRFSGSGSGIDFTLKISRVEAEDLGVYYCFQGSHVPFTFGSGTKLEIK
notes: Raised against the N+9/C-9 peptide; also called N+9/C-9 antibody 17H6
Regarding B9, the binding result with N-10/C-5 peptide, with N-19/C-5 peptide, with N-26 peptide, with N-19 peptide, with N-30 peptide and with N-10 peptide [8] was “no binding” throughout.

B10: monoclonal antibody 3C2B1 (antibody, V domains shown)
VH: EVMLVESGGGLVKPGGSLKLSCAASGITFSTYTMSWVRQTPEKRLEWVATISTGGDKTYYSDSVKGRFTISRDNAKNNLYLQMSSLRSEDTALYYCARGTTAMYYYAMDYWGQGTSVTVSS
VL: DIVLTQSPASLAVSLGQRATISCRASKSISTSDYNYIHWYQQKPGQPPKLLIYLASNLESGVPARFSGSGSGTDFTLNIHPVEEEDAATYYCQHSRELPLTFGAGTKLELK
notes: Raised against PSMGFR; also called MN3C2B1; anti-PSMGFR antibody 3C2B1
As for B10, the binding result is “binds” with PSMGFR peptide [5], “binds” with N-10 peptide [6] and “no binding” with C-10 peptide [9].

B11: monoclonal antibody 28F9 (antibody, V domains shown)
VH: QVQLQQPGAELVQPGASVKLSCKASGYTFTGYFLYWVKQRPGHGLEWIGGIHPSNGDTDFNEKFKNKATLTVDISSSTAYMQLSSLTSEDSAVYYCTLLIGVYWGQGTTLTVSS
VL: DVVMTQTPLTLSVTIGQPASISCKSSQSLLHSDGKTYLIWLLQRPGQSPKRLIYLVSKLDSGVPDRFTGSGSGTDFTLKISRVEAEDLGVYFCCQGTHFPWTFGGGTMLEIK
notes: Raised against PSMGFR; also called MN28F9; anti-PSMGFR antibody 28F9
With B11, the binding result in the test with PSMGFR peptide [10], with N+9/C-9 peptide, in the test with N-10 peptide [11] and with C-10 peptide [9] was “binds” in each case.

B12: monoclonal antibody 18G12 (antibody, V domains shown)
VH: QVQLQQSGAELVKPGASVKLSCKASGYTFTGYFLYWVKQRPGQGLEWIGGINPDNGGIDFNEKFRNKATLTVDKSSSTAYMQLSSLTSEDSAVYYCTLLIGNYWGQGTTLTVSS
VL: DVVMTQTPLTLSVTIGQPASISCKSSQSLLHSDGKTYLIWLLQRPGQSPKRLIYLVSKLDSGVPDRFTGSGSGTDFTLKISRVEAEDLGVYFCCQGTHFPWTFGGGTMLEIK
notes: Raised against PSMGFR; also called MN18G12; anti-PSMGFR antibody 18G12
As to B12, the binding result in the test with PSMGFR peptide [10], with N+9/C-9 peptide, in the test with N-10 peptide [11] and with C-10 peptide [9] was “binds” throughout.
